The results in this text go back to patent US20240400715A1 (VIBRANT PHARMA, published 2024).

The target of assay [1] is T1, human CD3ε/δ (ACRO systems, CDD-H52W1) (human, UniProt P07766 23-126; P04234 22-105).
T1 construct: bought recombinant heterodimer; also called human CD3 epsilon/delta; Human CD3ε/CD3δ
The experiment in a line: serum-stability ELISA, Day 2 vs Day 0.
Description: (§1) The samples to be tested were centrifuged at 4° C. at 12000 rpm for 30 minutes to remove the precipitate. 200 μl of each sample to be tested (0.5 mg/ml) was collected in a 1.5 ml Eppendorf tube. An equal volume of human serum (GEMINI, H2OYOOK) was added, mixed thoroughly, and the mixture was incubated in a 37° C. constant temperature CO₂ incubator. For a total of 10 days, 40 μl samples was aspirated every day and stored at −20° C.
(§2) Enzyme-linked immunosorbent assay (ELISA) was used to test the bispecific antibodies' binding to human CEA and human CD3 epsilon/delta antigen. The steps are as follows: the antigen human CD3ε/δ (ACRO systems, CDD-H52W1) and the recombinant tumor antigen human CEA (CEACAM-5/CD66e, ACRO systems, CE5-H5226) were diluted to 1 μg/ml with PBS, and then added to the 96-well plate at 100 μl per well. The wells were coated overnight at 4° C. After washing 3 times with 0.05% PBST, 200 μl 5% skimmed milk powder was added to each well and incubated at 37° C. for 2 h. After washing 3 times with 0.05% PBST, 100 μl primary antibody sample (10 μg/ml) was added to each well, and incubated at 37° C. for 2 h. After washing 3 times with 0.05% PBST, 100 μl (1:6000) diluted secondary antibody goat anti-human Fc-HRP (sigma, A2170) was added to each well, incubated at room temperature for 1 h. After washing 8 times with 0.05% PBST, 50 μl TMB color developing solution was added to each well, and incubated at room temperature for 10-15 min. 50 μl 1 mM HCl was added to each well to stop the color development. 450 nm Absorbance (OD) was read.
(§3) The binding of antibodies to antigen was calculated according to the following formula: Binding (%)=[(ODdayn−ODb)/(ODday0−ODb)]×100%. ODdayn: experimental well (the protein was stored in the serum for n days); ODday0: control well (the protein was not stored in the serum); ODb: blank well (no primary antibody added).

Assay [2] concerns the target T1, human CD3ε/δ (ACRO systems, CDD-H52W1). The assay is described as follows: serum-stability ELISA, Day 1 vs Day 0. Background: In an ELISA, binding on a coated surface is turned into a signal by an enzyme label.
Description: as §1, §2, §3
Assay [3] has the same target. The experiment in a line: serum-stability ELISA, Day 5 vs Day 0.
Description: as §1, §2, §3
Assay [4] shares this target. The experiment in a line: serum-stability ELISA, Day 10 vs Day 0.
Description: as §1, §2, §3
Assay [5] shares this target. The experiment in a line: serum-stability ELISA, Day 6 vs Day 0.
Description: as §1, §2, §3
The target is the same in assay [6]. The assay is described as follows: serum-stability ELISA, Day 9 vs Day 0.
Description: as §1, §2, §3
For assay [7] the target is unchanged. The experiment in a line: serum-stability ELISA, Day 7 vs Day 0.
Description: as §1, §2, §3
Assay [8] shares this target. The assay is described as follows: serum-stability ELISA, Day 0 (reference).

B1: 302 (TA3), configuration of FIG. 1W (bispecific antibody)
heavy: EVQLVESGGGLVQPGGSLRLSCAASGYSFTGYTMNWVRQAPGKGLEWVALINPYKGVSTYNQKFKDRFTISVDKSKNTAYLQMNSLRAEDTAVYYCARSGYYGDSDWYFDVWGQGTLVTVSSASTKGPSVFPLAPCSRSTSESTAALGCLVKDYFPEPVTVSWNSGALTSGVHTFPAVLQSSGLYSLSSVVTVPSSSLGTKTYTCNVDHKPSNTKVDKRVESKYGPPCPPCPAPEAAGGPSVFLFPPKPKDTLMISRTPEVTCVVVDVSQEDPEVQFNWYVDGVEVHNAKTKPREEQFNSTYRVVSVLTVLHQDWLNGKEYKCKVSNKGLPSSIEKTISKAKGQPREPQVYTLPPCQEEMTKNQVSLWCLVKGFYPSDIAVEWESNGQPENNYKTTPPVLDSDGSFFLYSRLTVDKSRWQEGNVFSCSVMHEALHNHYTQKSLSLSL
chain: EVQLVESGGGFVQAGESLTLSCTSSTLTFTPYRMAWYRQAPGKQRDLVADISSGDGRTTNYADFAKGRFTISRDNIKNTVFLRMTNLKPEDTAVYYCNTFVSFVGIARSWGQGTQVTVSSESKYGPPCPPCPAPEAAGGPSVFLFPPKPKDTLMISRTPEVTCVVVDVSQEDPEVQFNWYVDGVEVHNAKTKPREEQFNSTYRVVSVLTVLHQDWLNGKEYKCKVSNKGLPSSIEKTISKAKGQPREPQVCTLPPSQEEMTKNQVSLSCAVKGFYPSDIAVEWESNGQPENNYKTTPPVLDSDGSFFLVSRLTVDKSRWQEGNVFSCSVMHEALHNRFTQKSLSLSL
light: DIQMTQSPSSLSASVGDRVTITCRASQDIRNYLNWYQQKPGKAPKLLIYYTSRLESGVPSRFSGSGSGTDYTLTISSLQPEDFATYYCQQGNTLPWTFGQGTKVEIK
notes: not shown: kappa light chain constant domain (CL)
On to B1, for which the Binding % in assay [1] worked out at 104%; in assay [2], 108%; in assay [3], 110%; in assay [4], 106%; in assay [5], 107%; in assay [6], 103%. Moreover, the Binding % stood at 104% in assay [7] and 100% in assay [8].

B2: 306 (TA7), configuration of FIG. 1W (bispecific antibody)
heavy: EVQLVQSGAEVKKPGASVKVSCKASGFTFTSYYIHWVRQAPGQGLEWIGWIYPENDNTKYNEKFKDRVTITADTSTSTAYLELSSLRSEDTAVYYCARDGYSRYYFDYWGQGTLVTVSSASTKGPSVFPLAPCSRSTSESTAALGCLVKDYFPEPVTVSWNSGALTSGVHTFPAVLQSSGLYSLSSVVTVPSSSLGTKTYTCNVDHKPSNTKVDKRVESKYGPPCPPCPAPEAAGGPSVFLFPPKPKDTLMISRTPEVTCVVVDVSQEDPEVQFNWYVDGVEVHNAKTKPREEQFNSTYRVVSVLTVLHQDWLNGKEYKCKVSNKGLPSSIEKTISKAKGQPREPQVYTLPPCQEEMTKNQVSLWCLVKGFYPSDIAVEWESNGQPENNYKTTPPVLDSDGSFFLYSRLTVDKSRWQEGNVFSCSVMHEALHNHYTQKSLSLSL
chain: EVQLVESGGGFVQAGESLTLSCTSSTLTFTPYRMAWYRQAPGKQRDLVADISSGDGRTTNYADFAKGRFTISRDNIKNTVFLRMTNLKPEDTAVYYCNTFVSFVGIARSWGQGTQVTVSSESKYGPPCPPCPAPEAAGGPSVFLFPPKPKDTLMISRTPEVTCVVVDVSQEDPEVQFNWYVDGVEVHNAKTKPREEQFNSTYRVVSVLTVLHQDWLNGKEYKCKVSNKGLPSSIEKTISKAKGQPREPQVCTLPPSQEEMTKNQVSLSCAVKGFYPSDIAVEWESNGQPENNYKTTPPVLDSDGSFFLVSRLTVDKSRWQEGNVFSCSVMHEALHNRFTQKSLSLSL
light: DIVMTQSPDSLAVSLGERATINCKSSQSLLNSRTRKNYLAWYQQKPGQSPKLLIYWTSTRKSGVPDRFSGSGSGTDFTLTISSLQAEDVAVYYCKQSFILRTFGQGTKVEIK
notes: as for B1
Regarding B2, the Binding % in assay [1] is 110%; in assay [2] it was 112%; in assay [3], 115%; in assay [4], 112%; in assay [5] it was 101%; in assay [6], 95.1%. Besides, the Binding % is 105% in assay [7] and 100% in assay [8].

B3: 304 (TA5), configuration of FIG. 1W (bispecific antibody)
heavy: DVQLVQSGAEVKKPGASVKVSCKASGYTFTRYTMHWVRQAPGQGLEWIGYINPSRGYTNYADSVKGRFTITTDKSTSTAYMELSSLRSEDTATYYCARYYDDHYCLDYWGQGTTVTVSSASTKGPSVFPLAPCSRSTSESTAALGCLVKDYFPEPVTVSWNSGALTSGVHTFPAVLQSSGLYSLSSVVTVPSSSLGTKTYTCNVDHKPSNTKVDKRVESKYGPPCPPCPAPEAAGGPSVFLFPPKPKDTLMISRTPEVTCVVVDVSQEDPEVQFNWYVDGVEVHNAKTKPREEQFNSTYRVVSVLTVLHQDWLNGKEYKCKVSNKGLPSSIEKTISKAKGQPREPQVYTLPPCQEEMTKNQVSLWCLVKGFYPSDIAVEWESNGQPENNYKTTPPVLDSDGSFFLYSRLTVDKSRWQEGNVFSCSVMHEALHNHYTQKSLSLSL
chain: EVQLVESGGGFVQAGESLTLSCTSSTLTFTPYRMAWYRQAPGKQRDLVADISSGDGRTTNYADFAKGRFTISRDNIKNTVFLRMTNLKPEDTAVYYCNTFVSFVGIARSWGQGTQVTVSSESKYGPPCPPCPAPEAAGGPSVFLFPPKPKDTLMISRTPEVTCVVVDVSQEDPEVQFNWYVDGVEVHNAKTKPREEQFNSTYRVVSVLTVLHQDWLNGKEYKCKVSNKGLPSSIEKTISKAKGQPREPQVCTLPPSQEEMTKNQVSLSCAVKGFYPSDIAVEWESNGQPENNYKTTPPVLDSDGSFFLVSRLTVDKSRWQEGNVFSCSVMHEALHNRFTQKSLSLSL
light: DIVLTQSPATLSLSPGERATLSCRASQSVSYMNWYQQKPGKAPKRWIYDTSKVASGVPARFSGSGSGTDYSLTINSLEAEDAATYYCQQWSSNPLTFGGGTKVEIK
notes: VL row printed 'TAS VL', read as TA5 VL; full chains assembled from parts; not shown: kappa light chain constant domain (CL)
On to B3, for which the Binding % in assay [1] amounted to 106%; in assay [2], 108%; in assay [3] it was 100%; in assay [4], 101%; in assay [5], 105%; in assay [6] it was 101%. The Binding % in assay [7] worked out at 107%; in assay [8], 100%.

B4: 305 (TA6), configuration of FIG. 1W (bispecific antibody)
heavy: EVQLVQSGAEVKKPGASVKVSCKASGYTFTNYYIHWVRQAPGQGLEWIGWIYPGDGNTKYNEKFKGRATLTADTSTSTAYLELSSLRSEDTAVYYCARDSYSNYYFDYWGQGTLVTVSSASTKGPSVFPLAPCSRSTSESTAALGCLVKDYFPEPVTVSWNSGALTSGVHTFPAVLQSSGLYSLSSVVTVPSSSLGTKTYTCNVDHKPSNTKVDKRVESKYGPPCPPCPAPEAAGGPSVFLFPPKPKDTLMISRTPEVTCVVVDVSQEDPEVQFNWYVDGVEVHNAKTKPREEQFNSTYRVVSVLTVLHQDWLNGKEYKCKVSNKGLPSSIEKTISKAKGQPREPQVYTLPPCQEEMTKNQVSLWCLVKGFYPSDIAVEWESNGQPENNYKTTPPVLDSDGSFFLYSRLTVDKSRWQEGNVFSCSVMHEALHNHYTQKSLSLSL
chain: EVQLVESGGGFVQAGESLTLSCTSSTLTFTPYRMAWYRQAPGKQRDLVADISSGDGRTTNYADFAKGRFTISRDNIKNTVFLRMTNLKPEDTAVYYCNTFVSFVGIARSWGQGTQVTVSSESKYGPPCPPCPAPEAAGGPSVFLFPPKPKDTLMISRTPEVTCVVVDVSQEDPEVQFNWYVDGVEVHNAKTKPREEQFNSTYRVVSVLTVLHQDWLNGKEYKCKVSNKGLPSSIEKTISKAKGQPREPQVCTLPPSQEEMTKNQVSLSCAVKGFYPSDIAVEWESNGQPENNYKTTPPVLDSDGSFFLVSRLTVDKSRWQEGNVFSCSVMHEALHNRFTQKSLSLSL
light: DIVMTQSPDSLAVSLGERATINCKSSQSLLNSRTRKNYLAWYQQKPGQPPKLLIYWASTRESGVPDRFSGSGSGTDFTLTISSLQAEDVAVYYCTQSFILRTFGQGTKVEIK
notes: as for B1
In the case of B4, the Binding % was 109% in assay [1]; 112% in assay [2]; 110% in assay [3]; 108% in assay [4]; 111% in assay [5]; 109% in assay [6]. In addition, the Binding % in assay [7] is 110%; in assay [8], 100%.
